This is an account of results in paper PMC2938230 (Nucleic Acids Research, 2010).

For the experiment, the target named is T1, GAL4 DBD-hRARγ (human, UniProt P13631 1-454).
T1 sequence (looked up): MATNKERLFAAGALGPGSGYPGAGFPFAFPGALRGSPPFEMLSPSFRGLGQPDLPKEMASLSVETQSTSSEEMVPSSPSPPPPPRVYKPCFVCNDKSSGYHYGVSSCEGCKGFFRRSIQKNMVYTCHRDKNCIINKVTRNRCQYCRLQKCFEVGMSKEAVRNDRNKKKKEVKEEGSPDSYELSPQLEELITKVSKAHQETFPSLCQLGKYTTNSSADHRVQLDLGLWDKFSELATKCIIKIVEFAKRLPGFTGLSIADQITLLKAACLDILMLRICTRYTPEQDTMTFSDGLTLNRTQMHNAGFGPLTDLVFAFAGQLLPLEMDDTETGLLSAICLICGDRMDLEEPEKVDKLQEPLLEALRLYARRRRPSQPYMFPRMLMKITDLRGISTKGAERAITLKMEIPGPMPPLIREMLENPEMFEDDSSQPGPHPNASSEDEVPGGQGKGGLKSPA
The experiment in a line: two-hybrid.

B1: GAL4 AD-hADA3 (pACT2) (natural protein, human, UniProt O75528-1 1-432, looked up)
chain: MSELKDCPLQFHDFKSVDHLKVCPRYTAVLARSEDDGIGIEELDTLQLELETLLSSASRRLRVLEAETQILTDWQDKKGDRRFLKLGRDHELGAPPKHGKPKKQKLEGKAGHGPGPGPGRPKSKNLQPKIQEYEFTDDPIDVPRIPKNDAPNRFWASVEPYCADITSEEVRTLEELLKPPEDEAEHYKIPPLGKHYSQRWAQEDLLEEQKDGARAAAVADKKKGLMGPLTELDTKDVDALLKKSEAQHEQPEDGCPFGALTQRLLQALVEENIISPMEDSPIPDMSGKESGADGASTSPRNQNKPFSVPHTKSLESRIKEELIAQGLLESEDRPAEDSEDEVLAELRKRQAELKALSAHNRTKKHDLLRLAKEEVSRQELRQRVRMADNEVMDAFRKIMAARQKKRTPTKKEKDQAWKTLKERESILKLLDG
Take B1: the “fold interaction relative to RARα” value amounted to 3 fold.
